These results are taken from patent publication US20050042220A1 (GENETICS INSTITUTE, published 2005).

In assay [1] the target is T1, human IL-22 binding protein-Fc fusion (human, UniProt Q969J5-2 22-231, limits assumed).
T1 construct: Fc fusion homodimer, used as CHO conditioned medium; also called IL-22BP-Fc; huIL22BP-huFc; not shown: human IgG1 Fc
T1 sequence: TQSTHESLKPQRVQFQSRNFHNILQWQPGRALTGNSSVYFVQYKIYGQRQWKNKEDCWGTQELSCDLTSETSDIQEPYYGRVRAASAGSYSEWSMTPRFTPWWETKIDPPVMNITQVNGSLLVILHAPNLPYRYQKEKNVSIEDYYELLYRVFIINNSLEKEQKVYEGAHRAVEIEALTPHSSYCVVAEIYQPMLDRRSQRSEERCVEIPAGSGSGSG
The assay is described as follows: BIAcore, Fc fusion from conditioned medium captured by anti-human IgG, IL-22 injected, 1:1 model. The protocol: (§1) The surface was activated with EDC/NHS. The capturing antibody was injected at a concentration of 50 ug/ml in sodium acetate buffer (pH 4.5), the Protein-A was injected at a concentration of 50 ug/ml in sodium acetate buffer (pH 4.0), or test protein was directly injected at a concentration of 0.01-1 ug/ml in sodium acetate buffer (pH 5.0). The immobilization was done using the wizard tools with aim of 10.000 resonance units (RUs) for the anti-hu or anti-rat IgG, 3000 (RUs) for the Protein-A and […] (RUs) for the directly immobilized testing protein. Remaining activated groups were blocked with 1.0 M ethanolamine (pH 8.0). As control the first flow cell was used as reference surface to correct for bulk refractive index, matrix effects and non-specific binding, the second, third and four flow cells were coated with the capturing molecule.
(§2) For kinetic analysis, condition media containing IL-22R-Fc, IL-10R2-Fc, IL-22R-Fc/IL-10R2-Fc receptor complex or IL-22BP-Fc protein were captured onto the anti-human IgG antibody or protein A surfaces. The rat antibodies were captured onto the anti-rat IgG antibody surface, by injecting 60 ul of a 400 ng/ml solution. […] The dissociation phase was monitored in HBS/EP buffer for 10 minutes at the same flow rate followed by 5 ul injection of 0.1% TFA and 5 ul injection of glycine pH 1.5 to regenerate a fully active capturing surface. […]
(In general: In SPR one partner is held on a chip, and binding of the other changes the refractive index at the surface.)

Assay [2] deals with T2, human IL-22R extracellular domain-Fc fusion homodimer (human, UniProt Q8N6P7 16-228).
T2 construct: extracellular domain; Used as CHO conditioned medium, not purified; also called IL-22R-Fc; IL-22RECD-Fc; not shown: human IgG1 Fc
T2 sequence: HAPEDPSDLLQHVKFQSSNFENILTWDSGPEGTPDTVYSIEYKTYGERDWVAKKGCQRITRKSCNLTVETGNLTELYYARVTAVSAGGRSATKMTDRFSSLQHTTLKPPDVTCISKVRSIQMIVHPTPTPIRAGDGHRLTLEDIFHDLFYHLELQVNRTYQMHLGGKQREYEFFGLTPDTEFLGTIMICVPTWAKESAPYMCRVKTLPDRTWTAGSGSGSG
Nature of the assay: BIAcore, receptor-Fc from conditioned medium captured by anti-human IgG, IL-22 injected, 1:1 model. The procedure:
as §1, §2

The target of assay [3] is T3, IL-22R-Fc/IL-10R2-Fc heterodimer from co-expressing CHO cells (human, UniProt Q8N6P7 16-228; Q08334 20-220).
T3 construct: extracellular domain; also called IL-22R/IL-10R2-Fc heterodimer; IL-22R-Fc/IL-10R2-Fc complex; not shown: human IgG1 Fc
T3 sequence 1: T2 sequence
T3 sequence 2: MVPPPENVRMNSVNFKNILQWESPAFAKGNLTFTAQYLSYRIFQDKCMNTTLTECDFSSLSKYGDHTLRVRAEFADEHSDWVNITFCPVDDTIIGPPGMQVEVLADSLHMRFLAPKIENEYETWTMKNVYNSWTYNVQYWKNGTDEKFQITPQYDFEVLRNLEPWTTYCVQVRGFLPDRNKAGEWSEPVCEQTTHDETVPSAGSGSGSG
The description is as above. The procedure: as §1, §2

For assay [4], the target named is T2, human IL-22R extracellular domain-Fc …. The assay is described as follows: sandwich ELISA: rabbit anti-hIL-22R coat, 1:1 mixture of IL-22R-Fc and IL-10R2-Fc media titrated, biotinylated goat anti-hIL-10R2 then streptavidin-HRP, A450. The procedure: Monomeric IL-22RECD-Fc and IL-10R2ECD-Fc fusions were determined to have molecular weights of ˜60 kD and ˜85 kD, respectively. Reduced and non-reduced conditioned media (CM) from CHO cells expressing either or both receptor Fc fusions was separated on SDS-PAGE gels and blotted to a membrane which was then probed with polyclonal antibodies directed against either human IgG Fc, IL-22R or IL-10R2. More specifically, in FIG. 7A, conditioned media from CHO cells expressing either IL-22R-Fc, IL-10R2-Fc or both receptor Fc were separated on 8% polyacyrlamide gels under both reduced (+βME) and non-reduced (−βME) conditions and transferred to membrane blots. Western blots were carried out using any of anti-human IgG1, anti-hIL-22R or anti-hIL-10R2 antibodies. For anti-hIgG detection of a blot, 4 ng total Fc fusion in CM was loaded in each lane. For anti-IL-22R and anti-IL-10R2 antibody detection, 16 ng total Fc fusion in CM from co-expressing CHO was used. […] The bound receptors were detected using a biotinylated goat anti-human IL-10R2 antibody, followed by streptavidin-HRP.
The presence of heterodimers in the CM from CHO cells was verified by sandwich ELISA, using antibodies specific for each chain of the heterodimer. Conditioned media was added to wells coated with an IL-22R polyclonal antibody and bound protein was then detected with a biotinylated IL-10R2 polyclonal antibody. […]

B1: N terminal His/Flag tagged human IL-22 (ligand)
chain: GSGHHHHHHGSGDYKDDDDKAPISSHCRLDKSNFQQPYITNRTFMLAKEASLADNNTDVRLIGEKLFHGVSMSERCYLMKQVLNFTLEEVLFPQSDRFQPYMQEVVPFLARLSNRLSTCHIEGDDLHIQRNVQKLKDTVKKLGESGEIKAIGELDLLFMSLRNACI
notes: Made in CHO cells, extensively N-glycosylated; also called human h/f tagged IL-22; hIL-22
For B1, the Kd in assay [1] is 3.37 nM; in assay [2], 41 nM; in assay [3], 1.48 nM.

B2: human IL-10R2 extracellular domain-Fc fusion homodimer (Fc fusion)
chain: T3 sequence 2
notes: extracellular domain; Used as CHO conditioned medium, not purified; also called IL-10R2-Fc; IL-10R2ECD-Fc; not shown: human IgG1 Fc
As to B2, the binding result in assay [4] is “no binding (tested: 100 ng/ml total Fc fusion)”.

Broadly, the Kd is a measure of binding affinity in units of concentration. Lower therefore signals tighter binding.
